From the Immune Epitope Database (IEDB)

Columns and labels:
HLA-A*32:01 = experiment: IEDB peptide-MHC binding, purified MHC/competitive/radioactivity; filed as Kd, often an IC50 or EC50 that approximates it; ≥ and ≤ were set here for values at or beyond the usual limits of such assays
HLA-A*01:01 = experiment: as above
HLA-A*29:02 = experiment: as above
HLA-A*30:02 = experiment: as above
HLA-A*23:01 = experiment: as above
HLA-A*26:01 = experiment: as above
HLA-A*24:02 = experiment: as above
HLA-A*02:01 [1] = experiment: IEDB peptide-MHC binding, purified MHC/competitive/fluorescence; ≥ and ≤ were set here for values at or beyond the usual limits of such assays
HLA-A*11:01 = experiment: IEDB peptide-MHC binding, purified MHC/competitive/radioactivity; filed as Kd, often an IC50 or EC50 that approximates it; ≥ and ≤ were set here for values at or beyond the usual limits of such assays
HLA-A*33:01 = experiment: as above
HLA-A*68:01 = experiment: as above
HLA-A*03:01 = experiment: as above; settings: source organism: SARS coronavirus Tor2
HLA-A*31:01 = experiment: as above
HLA-A*02:01 [2] = experiment: IEDB peptide-MHC binding, purified MHC/competitive/fluorescence; filed as Kd, often an IC50 or EC50 that approximates it; ≥ and ≤ were set here for values at or beyond the usual limits of such assays; settings: source organism: West Nile virus
[3] = source organism: Dengue virus 2 Jamaica/1409/1983
[4] = source organism: Vaccinia virus WR
[5] = source organism: Mammarenavirus lassaense
[6] = source organism: SARS coronavirus Tor2
[7] = source organism: Mammarenavirus machupoense
[8] = source organism: Vaccinia virus Copenhagen
[9] = source organism: Dengue virus 1 Brazil/97-11/1997
[10] = source organism: West Nile virus NY-99
[11] = source organism: Dengue virus 4 Philippines/H241/1956
[12] = source organism: Zaire ebolavirus
[13] = source organism: Mammarenavirus guanaritoense
[14] = source organism: Mammarenavirus tacaribeense
[15] = source organism: Lassa virus GA391

Q: With LTGYGTVTM as the sequence, how does the Kd (HLA-A*32:01; [3]) read?
A: 15400 nM

Q: For MLMRVAVGI, which Kd (HLA-A*32:01; [4]) is on record?
A: 0.692 nM

Q: For PEDPIEVALY, which Kd (HLA-A*01:01; [5]) is on record?
A: ≥ 70400 nM

Q: What about the Kd (HLA-A*29:02; [5]) of the same sequence?
A: 10100 nM

Q: And the Kd (HLA-A*30:02; [5])?
A: 1220 nM

Q: And the Kd (HLA-A*23:01; [5])?
A: ≥ 70000 nM

Q: And the Kd (HLA-A*26:01; [5])?
A: ≥ 69700 nM

Q: And the Kd (HLA-A*24:02; [5])?
A: ≥ 70300 nM

Q: For PITAAAWYLW, which Kd (HLA-A*32:01; [3]) is on record?
A: 1680 nM

Q: Which results are given for PTITQMNLKY?
A: Kd (HLA-A*01:01; [6]): 89.6 nM; Kd (HLA-A*29:02; [6]): 48.4 nM; Kd (HLA-A*30:02; [6]): 1120 nM; Kd (HLA-A*23:01; [6]): ≥ 70000 nM; Kd (HLA-A*26:01; [6]): 827 nM; Kd (HLA-A*24:02; [6]): ≥ 70300 nM

Q: Which Kd (HLA-A*01:01; [7]) does the source give for QCGDPSSFEY here?
A: 500 nM

Q: And the Kd (HLA-A*29:02; [7])?
A: 600 nM

Q: And the Kd (HLA-A*30:02; [7])?
A: 1580 nM

Q: What about the Kd (HLA-A*23:01; [7]) of the same sequence?
A: ≥ 68800 nM

Q: What about the Kd (HLA-A*26:01; [7]) of the same sequence?
A: ≥ 69700 nM

Q: What about the Kd (HLA-A*24:02; [7]) of the same sequence?
A: ≥ 70300 nM

Q: With QYIYMGEPL as the sequence, how does the Kd (HLA-A*23:01; [3]) read?
A: 205 nM

Q: RLGADLDAV was tested. Which IC50 (HLA-A*02:01 [1]; [4]) did it give?
A: 7720 nM

Q: Which Kd (HLA-A*32:01; [3]) does the source give for RMLINRFTM here?
A: 95.7 nM

Q: With SAAAYFVGY as the sequence, how does the Kd (HLA-A*11:01; [6]) read?
A: 32.8 nM

Q: What about the Kd (HLA-A*33:01; [6]) of the same sequence?
A: ≥ 21500 nM

Q: What about the Kd (HLA-A*01:01; [6]) of the same sequence?
A: 311 nM

Q: And the Kd (HLA-A*68:01; [6])?
A: 106 nM

Q: And the Kd (HLA-A*29:02; [6])?
A: 65.5 nM

Q: And the Kd (HLA-A*30:02; [6])?
A: 17.7 nM

Q: What about the Kd (HLA-A*23:01; [6]) of the same sequence?
A: 6100 nM

Q: And the Kd (HLA-A*03:01)?
A: 89.7 nM

Q: What about the Kd (HLA-A*26:01; [6]) of the same sequence?
A: 85.5 nM

Q: What about the Kd (HLA-A*31:01; [6]) of the same sequence?
A: ≥ 26300 nM

Q: What about the Kd (HLA-A*24:02; [6]) of the same sequence?
A: 3870 nM

Q: With SGCVVSWKNK as the sequence, how does the Kd (HLA-A*32:01; [3]) read?
A: 9640 nM

Q: SIIFINYTM was tested. Which Kd (HLA-A*32:01; [8]) did it give?
A: 6.51 nM

Q: SIILEFFLM was tested. Which Kd (HLA-A*26:01; [9]) did it give?
A: 4190 nM

Q: How did the IC50 (HLA-A*02:01 [1]; [10]) turn out when SLFGQRIEV was run?
A: 204 nM

Q: What about the Kd (HLA-A*02:01 [2]) of the same sequence?
A: 0.9 nM

Q: Which IC50 (HLA-A*02:01 [1]; [10]) does the source give for SLTSINVQA here?
A: 503 nM

Q: With SQSDTVFDH as the sequence, how does the Kd (HLA-A*01:01; source organism: Variola virus) read?
A: ≥ 23800 nM

Q: And the Kd (HLA-A*29:02; source organism: Variola virus)?
A: ≥ 48300 nM

Q: What about the Kd (HLA-A*30:02; source organism: Variola virus) of the same sequence?
A: ≥ 76900 nM

Q: And the Kd (HLA-A*23:01; source organism: Variola virus)?
A: ≥ 44400 nM

Q: And the Kd (HLA-A*26:01; source organism: Variola virus)?
A: ≥ 77900 nM

Q: What about the Kd (HLA-A*24:02; source organism: Variola virus) of the same sequence?
A: ≥ 77500 nM

Q: Which Kd (HLA-A*01:01; [6]) does the source give for TAEDMLNPNY here?
A: 1040 nM

Q: What about the Kd (HLA-A*29:02; [6]) of the same sequence?
A: 5500 nM

Q: And the Kd (HLA-A*30:02; [6])?
A: 1070 nM

Q: And the Kd (HLA-A*23:01; [6])?
A: ≥ 70000 nM

Q: And the Kd (HLA-A*26:01; [6])?
A: 17600 nM

Q: And the Kd (HLA-A*24:02; [6])?
A: ≥ 70300 nM

Q: TDNVHTWTEQ was tested. Which Kd (HLA-A*32:01; [3]) did it give?
A: ≥ 37600 nM

Q: How did the Kd (HLA-A*32:01; [11]) turn out when TGCAVSWSGK was run?
A: 8440 nM

Q: For TVIEELEKL, which Kd (HLA-A*26:01; [11]) is on record?
A: 496 nM

Q: With TVMDVISRR as the sequence, how does the Kd (HLA-A*11:01; [9]) read?
A: 30.2 nM

Q: And the Kd (HLA-A*33:01; [9])?
A: 7.07 nM

Q: And the Kd (HLA-A*68:01; [9])?
A: 7.98 nM

Q: And the Kd (HLA-A*26:01; [9])?
A: 2340 nM

Q: What about the Kd (HLA-A*31:01; [9]) of the same sequence?
A: ≥ 39300 nM

Q: What does the source list for TYVPSQERNF?
A: Kd (HLA-A*01:01; [6]): ≥ 70400 nM; Kd (HLA-A*29:02; [6]): 1310 nM; Kd (HLA-A*30:02; [6]): 14100 nM; Kd (HLA-A*23:01; [6]): 39.2 nM; Kd (HLA-A*26:01; [6]): ≥ 69700 nM; Kd (HLA-A*24:02; [6]): 72.3 nM

Q: For VATDVPSAT, which IC50 (HLA-A*02:01 [1]; [12]) is on record?
A: ≥ 157000 nM

Q: How did the Kd (HLA-A*32:01; source organism: Dengue virus 4 Dominica/814669/1981) turn out when VDNVHTWTEQ was run?
A: ≥ 34100 nM

Q: For VKRLEELLP, which IC50 (HLA-A*02:01 [1]; [12]) is on record?
A: ≥ 375000 nM

Q: Which Kd (HLA-A*01:01; [13]) does the source give for VPDIPELSY here?
A: 3070 nM

Q: What about the Kd (HLA-A*29:02; [13]) of the same sequence?
A: 11700 nM

Q: What about the Kd (HLA-A*30:02; [13]) of the same sequence?
A: ≥ 25300 nM

Q: What about the Kd (HLA-A*23:01; [13]) of the same sequence?
A: ≥ 77700 nM

Q: And the Kd (HLA-A*26:01; [13])?
A: ≥ 49300 nM

Q: What about the Kd (HLA-A*24:02; [13]) of the same sequence?
A: ≥ 77500 nM

Q: For VTPSGTWLTY, which Kd (HLA-A*01:01; [6]) is on record?
A: 66.1 nM

Q: And the Kd (HLA-A*29:02; [6])?
A: 66.1 nM

Q: What about the Kd (HLA-A*30:02; [6]) of the same sequence?
A: 45.3 nM

Q: And the Kd (HLA-A*23:01; [6])?
A: ≥ 49100 nM

Q: What about the Kd (HLA-A*26:01; [6]) of the same sequence?
A: 392 nM

Q: And the Kd (HLA-A*24:02; [6])?
A: ≥ 57700 nM

Q: For VTYELRYTL, which Kd (HLA-A*32:01; [8]) is on record?
A: 11.9 nM

Q: With WFITQRNFF as the sequence, how does the Kd (HLA-A*01:01; [6]) read?
A: 1090 nM

Q: And the Kd (HLA-A*29:02; [6])?
A: 13.6 nM

Q: What about the Kd (HLA-A*30:02; [6]) of the same sequence?
A: 137 nM

Q: What about the Kd (HLA-A*23:01; [6]) of the same sequence?
A: 2730 nM

Q: What about the Kd (HLA-A*26:01; [6]) of the same sequence?
A: 172 nM

Q: And the Kd (HLA-A*24:02; [6])?
A: ≥ 32500 nM

Q: How did the Kd (HLA-A*01:01; [14]) turn out when YCDPKRFFL was run?
A: ≥ 29100 nM

Q: And the Kd (HLA-A*29:02; [14])?
A: ≥ 78900 nM

Q: And the Kd (HLA-A*30:02; [14])?
A: ≥ 76900 nM

Q: What about the Kd (HLA-A*23:01; [14]) of the same sequence?
A: 7530 nM

Q: And the Kd (HLA-A*26:01; [14])?
A: ≥ 77900 nM

Q: What about the Kd (HLA-A*24:02; [14]) of the same sequence?
A: 11300 nM

Q: For YCNYSRYWY, which Kd (HLA-A*01:01; [15]) is on record?
A: ≥ 34400 nM

Q: And the Kd (HLA-A*29:02; [15])?
A: 1230 nM

Q: And the Kd (HLA-A*30:02; [15])?
A: 818 nM

Q: And the Kd (HLA-A*23:01; [15])?
A: ≥ 36900 nM

Q: What about the Kd (HLA-A*26:01; [15]) of the same sequence?
A: ≥ 77900 nM

Q: And the Kd (HLA-A*24:02; [15])?
A: ≥ 77500 nM

Q: YWISNGTGNI was tested. Which Kd (HLA-A*23:01; source organism: Dengue virus 3 Martinique/1243/1999) did it give?
A: 165 nM
